These results are taken from US20140087995A1 (published 2014).

Experiment [1] has as its target T1, human calcitonin receptor (human, UniProt P30988 25-474).
T1 construct: whole, on cells; also called hCTR; hCT
T1 sequence (looked up): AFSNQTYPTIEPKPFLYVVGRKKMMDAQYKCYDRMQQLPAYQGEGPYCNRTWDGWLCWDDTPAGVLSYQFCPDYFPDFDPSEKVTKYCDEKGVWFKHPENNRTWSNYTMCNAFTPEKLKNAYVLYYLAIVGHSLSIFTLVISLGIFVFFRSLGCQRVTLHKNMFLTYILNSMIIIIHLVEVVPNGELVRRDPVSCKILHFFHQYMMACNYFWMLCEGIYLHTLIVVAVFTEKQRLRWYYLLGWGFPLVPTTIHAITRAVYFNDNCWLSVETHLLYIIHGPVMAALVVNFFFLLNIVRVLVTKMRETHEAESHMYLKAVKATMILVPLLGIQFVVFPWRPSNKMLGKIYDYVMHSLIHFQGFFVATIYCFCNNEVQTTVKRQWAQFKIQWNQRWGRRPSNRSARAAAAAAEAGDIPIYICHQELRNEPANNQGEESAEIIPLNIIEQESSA
Put plainly: SPA radioligand competition (125I-calcitonin), membranes of BHK cells with human calcitonin receptor. The gist of the method: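 BHK hCTR membranes 35 ng/μL + SPA beads 0.05 mg/well; buffer 50 mM Hepes pH 7.4, 1 mM CaCl2, 5 mM MgCl₂, 0.1% OA, 0.02% Tween20. 120 min, 25° C., shaking. Scintillation count; IC50 by one-site binding competition.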
For orientation: Loss of bound radioactivity is the signal in a displacement assay; it reports binding, not function.

In experiment [2] the target is T1, human calcitonin receptor. Description: ratio of IC50 at human calcitonin receptor to IC50 at human amylin receptor (SPA competition assays). The procedure, abridged:
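Scintillation proximity competition binding on cell membranes at 35 ng/μL with SPA beads, in 50 mM Hepes pH 7.4, 1 mM CaCl2, 5 mM MgCl₂, 0.1% OA, 0.02% Tween20. Incubated 120 min at 25° C with shaking. IC₅₀ from one-site competition fit.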

Numbered stars: 1 amine (or outer) side, 2 acyl side, 3 side chain; on linkers, the order of the positions; unused ones are H or OH. Bridge positions count the residues as written; N and C are the ends. Side chains are listed from the residue outwards. Ends that are not written are not given here. * marks the point of attachment. C20 diacid = O=C(O)CCCCCCCCCCCCCCCCCCC(=O)*; γGlu = O=C(O)[C@H](CCC(=O)[*:2])N[*:1]

B1: N^ε1-[(4S)-4-carboxy-4-(19-carboxynonadecanoylamino)butanoyl]-[Glu14,Arg17,Pro21,Pro27,Arg34,Glu35]-h-amylin (peptide)
peptide: K([γGlu-C20 diacid])CNTATCATQRLAEFLRHSSPNFGAIPSSTNVGRETY-NH2
modifications: disulfide 2-7; N-terminus assumed
SMILES: CC[C@H](C)[C@H](NC(=O)[C@H](C)NC(=O)CNC(=O)[C@H](Cc1ccccc1)NC(=O)[C@H](CC(N)=O)NC(=O)[C@@H]1CCCN1C(=O)[C@H](CO)NC(=O)[C@H](CO)NC(=O)[C@H](Cc1c[nH]cn1)NC(=O)[C@H](CCCNC(=N)N)NC(=O)[C@H](CC(C)C)NC(=O)[C@H](Cc1ccccc1)NC(=O)[C@H](CCC(=O)O)NC(=O)[C@H](C)NC(=O)[C@H](CC(C)C)NC(=O)[C@H](CCCNC(=N)N)NC(=O)[C@H](CCC(N)=O)NC(=O)[C@@H](NC(=O)[C@H](C)NC(=O)[C@@H]1CSSC[C@H](NC(=O)[C@@H](N)CCCCNC(=O)CC[C@H](NC(=O)CCCCCCCCCCCCCCCCCCC(=O)O)C(=O)O)C(=O)N[C@@H](CC(N)=O)C(=O)N[C@@H]([C@@H](C)O)C(=O)N[C@@H](C)C(=O)N[C@@H]([C@@H](C)O)C(=O)N1)[C@@H](C)O)C(=O)N1CCC[C@H]1C(=O)N[C@@H](CO)C(=O)N[C@@H](CO)C(=O)N[C@H](C(=O)N[C@@H](CC(N)=O)C(=O)N[C@H](C(=O)NCC(=O)N[C@@H](CCCNC(=N)N)C(=O)N[C@@H](CCC(=O)O)C(=O)N[C@H](C(=O)N[C@@H](Cc1ccc(O)cc1)C(N)=O)[C@@H](C)O)C(C)C)[C@@H](C)O
For B1, in experiment [1], the IC50 was 6.62 nM. Also, the “Ratio hCT/hAmylin binding” value in experiment [2] came to 28.5.

B2: N^ε1-[(4S)-4-carboxy-4-(19-carboxynonadecanoylamino)butanoyl]-[His14,Arg17,Pro21,Pro27,Arg34]-h-amylin (peptide)
peptide: K([γGlu-C20 diacid])CNTATCATQRLAHFLRHSSPNFGAIPSSTNVGRNTY-NH2
modifications: disulfide 2-7; N-terminus assumed
SMILES: CC[C@H](C)[C@H](NC(=O)[C@H](C)NC(=O)CNC(=O)[C@H](Cc1ccccc1)NC(=O)[C@H](CC(N)=O)NC(=O)[C@@H]1CCCN1C(=O)[C@H](CO)NC(=O)[C@H](CO)NC(=O)[C@H](Cc1c[nH]cn1)NC(=O)[C@H](CCCNC(=N)N)NC(=O)[C@H](CC(C)C)NC(=O)[C@H](Cc1ccccc1)NC(=O)[C@H](Cc1c[nH]cn1)NC(=O)[C@H](C)NC(=O)[C@H](CC(C)C)NC(=O)[C@H](CCCNC(=N)N)NC(=O)[C@H](CCC(N)=O)NC(=O)[C@@H](NC(=O)[C@H](C)NC(=O)[C@@H]1CSSC[C@H](NC(=O)[C@@H](N)CCCCNC(=O)CC[C@H](NC(=O)CCCCCCCCCCCCCCCCCCC(=O)O)C(=O)O)C(=O)N[C@@H](CC(N)=O)C(=O)N[C@@H]([C@@H](C)O)C(=O)N[C@@H](C)C(=O)N[C@@H]([C@@H](C)O)C(=O)N1)[C@@H](C)O)C(=O)N1CCC[C@H]1C(=O)N[C@@H](CO)C(=O)N[C@@H](CO)C(=O)N[C@H](C(=O)N[C@@H](CC(N)=O)C(=O)N[C@H](C(=O)NCC(=O)N[C@@H](CCCNC(=N)N)C(=O)N[C@@H](CC(N)=O)C(=O)N[C@H](C(=O)N[C@@H](Cc1ccc(O)cc1)C(N)=O)[C@@H](C)O)C(C)C)[C@@H](C)O
notes: also called compound 85
As to B2, the IC50 in experiment [1] amounted to 80.4 nM. The “Ratio hCT/hAmylin binding” value in experiment [2] came to 91.8.

B3: N^ε1-[(4S)-4-carboxy-4-(19-carboxynonadecanoylamino)butanoyl]-[His14,Arg17,Pro21,Pro27,His34]-h-amylin (peptide)
peptide: K([γGlu-C20 diacid])CNTATCATQRLAHFLRHSSPNFGAIPSSTNVGHNTY-NH2
modifications: disulfide 2-7; N-terminus assumed
SMILES: CC[C@H](C)[C@H](NC(=O)[C@H](C)NC(=O)CNC(=O)[C@H](Cc1ccccc1)NC(=O)[C@H](CC(N)=O)NC(=O)[C@@H]1CCCN1C(=O)[C@H](CO)NC(=O)[C@H](CO)NC(=O)[C@H](Cc1c[nH]cn1)NC(=O)[C@H](CCCNC(=N)N)NC(=O)[C@H](CC(C)C)NC(=O)[C@H](Cc1ccccc1)NC(=O)[C@H](Cc1c[nH]cn1)NC(=O)[C@H](C)NC(=O)[C@H](CC(C)C)NC(=O)[C@H](CCCNC(=N)N)NC(=O)[C@H](CCC(N)=O)NC(=O)[C@@H](NC(=O)[C@H](C)NC(=O)[C@@H]1CSSC[C@H](NC(=O)[C@@H](N)CCCCNC(=O)CC[C@H](NC(=O)CCCCCCCCCCCCCCCCCCC(=O)O)C(=O)O)C(=O)N[C@@H](CC(N)=O)C(=O)N[C@@H]([C@@H](C)O)C(=O)N[C@@H](C)C(=O)N[C@@H]([C@@H](C)O)C(=O)N1)[C@@H](C)O)C(=O)N1CCC[C@H]1C(=O)N[C@@H](CO)C(=O)N[C@@H](CO)C(=O)N[C@H](C(=O)N[C@@H](CC(N)=O)C(=O)N[C@H](C(=O)NCC(=O)N[C@@H](Cc1c[nH]cn1)C(=O)N[C@@H](CC(N)=O)C(=O)N[C@H](C(=O)N[C@@H](Cc1ccc(O)cc1)C(N)=O)[C@@H](C)O)C(C)C)[C@@H](C)O
notes: also called compound 81
On to B3, for which, in experiment [1], the IC50 came to 23.6 nM. Also, the “Ratio hCT/hAmylin binding” value in experiment [2] was determined as 87.2.

B4: N^ε1-[(4S)-4-carboxy-4-(19-carboxynonadecanoylamino)butanoyl]-[His14,Arg17,Pro21,Pro27,Pro31,Pro34]-h-amylin (peptide)
peptide: K([γGlu-C20 diacid])CNTATCATQRLAHFLRHSSPNFGAIPSSTPVGPNTY-NH2
modifications: disulfide 2-7; N-terminus assumed
SMILES: CC[C@H](C)[C@H](NC(=O)[C@H](C)NC(=O)CNC(=O)[C@H](Cc1ccccc1)NC(=O)[C@H](CC(N)=O)NC(=O)[C@@H]1CCCN1C(=O)[C@H](CO)NC(=O)[C@H](CO)NC(=O)[C@H](Cc1c[nH]cn1)NC(=O)[C@H](CCCNC(=N)N)NC(=O)[C@H](CC(C)C)NC(=O)[C@H](Cc1ccccc1)NC(=O)[C@H](Cc1c[nH]cn1)NC(=O)[C@H](C)NC(=O)[C@H](CC(C)C)NC(=O)[C@H](CCCNC(=N)N)NC(=O)[C@H](CCC(N)=O)NC(=O)[C@@H](NC(=O)[C@H](C)NC(=O)[C@@H]1CSSC[C@H](NC(=O)[C@@H](N)CCCCNC(=O)CC[C@H](NC(=O)CCCCCCCCCCCCCCCCCCC(=O)O)C(=O)O)C(=O)N[C@@H](CC(N)=O)C(=O)N[C@@H]([C@@H](C)O)C(=O)N[C@@H](C)C(=O)N[C@@H]([C@@H](C)O)C(=O)N1)[C@@H](C)O)C(=O)N1CCC[C@H]1C(=O)N[C@@H](CO)C(=O)N[C@@H](CO)C(=O)N[C@H](C(=O)N1CCC[C@H]1C(=O)N[C@H](C(=O)NCC(=O)N1CCC[C@H]1C(=O)N[C@@H](CC(N)=O)C(=O)N[C@H](C(=O)N[C@@H](Cc1ccc(O)cc1)C(N)=O)[C@@H](C)O)C(C)C)[C@@H](C)O
Take B4: the IC50 in experiment [1] was 2.04 nM. For the same molecule, in experiment [2], the “Ratio hCT/hAmylin binding” value turned out to be 24.8.

B5: N^ε1-[(4S)-4-carboxy-4-(19-carboxynonadecanoylamino)butanoyl]-[Glu14,Arg17,Pro21,Pro27,Pro34,Glu35]-h-amylin (peptide)
peptide: K([γGlu-C20 diacid])CNTATCATQRLAEFLRHSSPNFGAIPSSTNVGPETY-NH2
modifications: disulfide 2-7; N-terminus assumed
SMILES: CC[C@H](C)[C@H](NC(=O)[C@H](C)NC(=O)CNC(=O)[C@H](Cc1ccccc1)NC(=O)[C@H](CC(N)=O)NC(=O)[C@@H]1CCCN1C(=O)[C@H](CO)NC(=O)[C@H](CO)NC(=O)[C@H](Cc1c[nH]cn1)NC(=O)[C@H](CCCNC(=N)N)NC(=O)[C@H](CC(C)C)NC(=O)[C@H](Cc1ccccc1)NC(=O)[C@H](CCC(=O)O)NC(=O)[C@H](C)NC(=O)[C@H](CC(C)C)NC(=O)[C@H](CCCNC(=N)N)NC(=O)[C@H](CCC(N)=O)NC(=O)[C@@H](NC(=O)[C@H](C)NC(=O)[C@@H]1CSSC[C@H](NC(=O)[C@@H](N)CCCCNC(=O)CC[C@H](NC(=O)CCCCCCCCCCCCCCCCCCC(=O)O)C(=O)O)C(=O)N[C@@H](CC(N)=O)C(=O)N[C@@H]([C@@H](C)O)C(=O)N[C@@H](C)C(=O)N[C@@H]([C@@H](C)O)C(=O)N1)[C@@H](C)O)C(=O)N1CCC[C@H]1C(=O)N[C@@H](CO)C(=O)N[C@@H](CO)C(=O)N[C@H](C(=O)N[C@@H](CC(N)=O)C(=O)N[C@H](C(=O)NCC(=O)N1CCC[C@H]1C(=O)N[C@@H](CCC(=O)O)C(=O)N[C@H](C(=O)N[C@@H](Cc1ccc(O)cc1)C(N)=O)[C@@H](C)O)C(C)C)[C@@H](C)O
For the molecule B5, in experiment [1], the IC50 amounted to 1.86 nM. Also, the “Ratio hCT/hAmylin binding” value in experiment [2] was 13.3.

B6: N^ε1-[(4S)-4-carboxy-4-(19-carboxynonadecanoylamino)butanoyl]-[Glu14,Arg17,Pro21,Pro27,Pro34,Arg35]-h-amylin (peptide)
peptide: K([γGlu-C20 diacid])CNTATCATQRLAEFLRHSSPNFGAIPSSTNVGPRTY-NH2
modifications: disulfide 2-7; N-terminus assumed
SMILES: CC[C@H](C)[C@H](NC(=O)[C@H](C)NC(=O)CNC(=O)[C@H](Cc1ccccc1)NC(=O)[C@H](CC(N)=O)NC(=O)[C@@H]1CCCN1C(=O)[C@H](CO)NC(=O)[C@H](CO)NC(=O)[C@H](Cc1c[nH]cn1)NC(=O)[C@H](CCCNC(=N)N)NC(=O)[C@H](CC(C)C)NC(=O)[C@H](Cc1ccccc1)NC(=O)[C@H](CCC(=O)O)NC(=O)[C@H](C)NC(=O)[C@H](CC(C)C)NC(=O)[C@H](CCCNC(=N)N)NC(=O)[C@H](CCC(N)=O)NC(=O)[C@@H](NC(=O)[C@H](C)NC(=O)[C@@H]1CSSC[C@H](NC(=O)[C@@H](N)CCCCNC(=O)CC[C@H](NC(=O)CCCCCCCCCCCCCCCCCCC(=O)O)C(=O)O)C(=O)N[C@@H](CC(N)=O)C(=O)N[C@@H]([C@@H](C)O)C(=O)N[C@@H](C)C(=O)N[C@@H]([C@@H](C)O)C(=O)N1)[C@@H](C)O)C(=O)N1CCC[C@H]1C(=O)N[C@@H](CO)C(=O)N[C@@H](CO)C(=O)N[C@H](C(=O)N[C@@H](CC(N)=O)C(=O)N[C@H](C(=O)NCC(=O)N1CCC[C@H]1C(=O)N[C@@H](CCCNC(=N)N)C(=O)N[C@H](C(=O)N[C@@H](Cc1ccc(O)cc1)C(N)=O)[C@@H](C)O)C(C)C)[C@@H](C)O
Take B6: the IC50 in experiment [1] was determined as 6.3 nM. Moreover, the “Ratio hCT/hAmylin binding” value in experiment [2] is 38.6.
Regarding K([γGlu-C20 diacid])CNTATCATQRLAEFLRHSSPNFGAIPSSTNVGPHTY-NH2 (disulfide 2-7), in experiment [1], the IC50 turned out to be 3.8 nM. Further, in experiment [2], the “Ratio hCT/hAmylin binding” value is 21.2.

In general, IC50 refers to the midpoint of a concentration-inhibition curve.
